Laboratory results from patent US20190092852A1 (Genentech, published 2019).
Values joined by “and” are separate entries in the source; they are usually repeats but may differ in a detail not shown here. Identical values can stand only once. Each block holds one binder with its values, some of them ahead of it.

Experiments:
[1] = target: T1, human IL-33 (cell-based blocking assay of Example 2) (human, UniProt O95760 112-270); assay: cell-based or functional assay
T1 sequence (looked up): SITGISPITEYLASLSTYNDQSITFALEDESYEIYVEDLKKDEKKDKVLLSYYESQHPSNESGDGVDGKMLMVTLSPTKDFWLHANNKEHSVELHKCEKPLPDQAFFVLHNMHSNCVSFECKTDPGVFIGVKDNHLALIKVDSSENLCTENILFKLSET

[2] = target: T2, cyno IL-33 (cell-based blocking assay of Example 2) (cynomolgus monkey, UniProt A0A2K5W3I1 95-269); assay: cell-based or functional assay
T2 sequence: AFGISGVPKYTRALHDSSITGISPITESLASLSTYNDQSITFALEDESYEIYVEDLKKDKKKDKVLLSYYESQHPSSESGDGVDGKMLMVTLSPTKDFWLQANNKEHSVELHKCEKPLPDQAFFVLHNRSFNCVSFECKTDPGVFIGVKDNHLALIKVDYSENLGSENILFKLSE

[3] = target: T3, cyno IL-33 (construct not stated) (cynomolgus monkey, UniProt A0A2K5W3I1 112-269); assay: SPR Biacore
T3 construct: also called cynomolgus IL-33; cyno IL-33 (Genentech)
T3 sequence: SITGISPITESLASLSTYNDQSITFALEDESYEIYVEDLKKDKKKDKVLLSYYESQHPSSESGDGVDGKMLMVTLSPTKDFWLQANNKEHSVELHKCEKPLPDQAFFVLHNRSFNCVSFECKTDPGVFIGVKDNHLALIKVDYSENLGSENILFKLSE

[4] = target: T4, human IL-33 (Genentech, huIL33.his) (human, UniProt O95760 112-270); assay: SPR Biacore
T4 sequence (looked up): T1 sequence (looked up)

[5] = target: T1, human IL-33 (cell-based blocking assay …); assay: cell-based or functional assay; remark: listed apart in the source
[6] = target: T2, cyno IL-33 (cell-based blocking assay …); assay: cell-based or functional assay; remark: listed apart in the source
cyno IL-33 N-His [7] = target: T5, cyno IL-33 N-His (cynomolgus monkey); assay: SPR Biacore T200, 37 C
T5 chain: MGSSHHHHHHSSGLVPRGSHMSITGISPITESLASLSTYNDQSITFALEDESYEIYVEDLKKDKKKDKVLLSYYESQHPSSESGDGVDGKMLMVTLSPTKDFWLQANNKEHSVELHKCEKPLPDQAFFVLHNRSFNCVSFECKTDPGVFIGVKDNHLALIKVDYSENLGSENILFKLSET
Summary of the method: (§1)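 Antibodies captured via anti-Fc on CM5 chip; IL-33 injected at 3.7–100 nM (three-fold series), 4 min association, 10 min dissociation, 30 μl/min, ADA pH 7.4 buffer with 0.15 M NaCl, EDTA, Tween-20, at 25 °C or 37 °C. KD = koff/kon from 1:1 Langmuir fit; t1/2 = ln(2)/(60*koff).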

[8] = target: T6, human IL-33 (R&D Systems, #3625-IL-010/CF) (human, UniProt O95760 112-270); assay: SPR Biacore T200, 37 C
T6 construct: also called hIL-33; huIL-33
T6 sequence (looked up): T1 sequence (looked up)
Summary of the method: as §1

cyno IL-33 N-His [9] = target: T5, cyno IL-33 N-His; assay: SPR Biacore T200, 25 C
Summary of the method: as §1

[10] = target: T6, human IL-33 (R&D Systems, …); assay: SPR Biacore T200, 25 C
Summary of the method: as §1

[11] = target: T6, human IL-33 (R&D Systems, …); assay: cell-based or functional assay
[12] = target: T6, human IL-33 (R&D Systems, …); assay: cell-based or functional assay; remark: listed apart in the source
biotinylated human IL-33 = target: T7, biotinylated human IL-33 (human, UniProt O95760 112-270, biotin-labeled with EZ-LINK NHS-PEG4-Biotin); assay: competitive ELISA, biotin-huIL-33 to coated hST2-Fc
T7 construct: also called biotin-huIL-33
T7 sequence (looked up): T1 sequence (looked up)
Description: The ability of the anti-IL-33 antibody 10C12.38.H6.87Y.58I IgG4 and each anti-IL-33 antibody listed in Table 5 (RG1-RG20) to block either human IL-33 or cyno IL-33 binding to human ST2 receptor was tested in a competitive binding ELISA. Briefly, 1 μg/ml of recombinant human ST2-Fc chimera protein prepared in coating buffer (50 mM sodium carbonate, pH 9.6) was coated on a 384-well MAXISORP® plate (Nalgene Nunc International; Rochester, N.Y.) and incubated overnight at 4° C. On the next day, non-specific binding was blocked with PBS containing 0.5% (w/v) solution of bovine serum albumin (BSA). Fixed concentrations of biotinylated human or cyno IL-33 prepared in assay buffer (25 mM PBS, pH 7.2, 0.1% BSA, 0.05% TWEEN®-20) were mixed with an equal volume of serially-diluted anti-IL-33 antibodies or assay buffer alone and incubated for 1 h at room temperature. The final assay concentrations of biotinylated human IL-33 or cyno IL-33 were 20 pM and 45 pM, respectively, and the final assay concentration of each antibody ranged from 0-300 nM. The pre-mixed solutions were added to the ST2-Fc coated plate and incubated for 1 h at room temperature. The binding of biotinylated IL-33 to coated ST2-Fc was detected by the sequential addition of Streptavidin Poly-HRP80 (Fitzgerald; Buckinghamshire, UK) and 3,3′,5,5′-tetramethyl benzidine (TMB) Microwell Peroxidase Substrate System (KPL; Gaithersburg, Md.). The absorbance (450 nm) was recorded using a […] ASCENT® plate reader (Thermo Scientific; Rockford, Ill.). The binding activity (%) of biotin-IL-33 to ST2 in the presence of anti-IL-33 was plotted as a function of antibody concentration. The data generated were fitted to a four-parameter equation to determine IC₅₀ values for each antibody (FIGS. 25A and 25B) using Prism software (Graphpad Software; La Jolla, Calif.). The maximum blocking (%) of each antibody was calculated as the ratio of the reduction in signal measured in the presence of antibody relative to the difference between the signal with IL-33 alone and background measurements.

[13] = target: T6, human IL-33 (R&D Systems, …); assay: cell-based or functional assay; remark: listed apart in the source

Cell assay (hu) IC90 [1]: 0.002 µg/mL and 0.013 nM
Cell assay (cy) IC90 [2]: 0.193 µg/mL and 1.27 nM
Kd [3]: 0.07 nM
Kd [4]: ≤ 0.007 nM
IC50 (HEK-BLUE SEAP reporter, IL-33 blocking) [5]: 0.0039 nM
IC90 (HEK-BLUE SEAP reporter, IL-33 blocking) [5]: 18.2 pM and 0.0027 µg/mL
IC50 (HEK-BLUE SEAP reporter, IL-33 blocking) [6]: 0.142 nM
IC90 (HEK-BLUE SEAP reporter, IL-33 blocking) [6]: 1290 pM and 0.193 µg/mL
B1: 10C12 (antibody, V domains shown)
VH: DVNLVESGGGSVKPGGSLKLSCVASGFTFSSFSMSWVRQTPEKRLEWVATISGGKTFTDYVDSVKGRFTISRDDAKNTLYLQMSSLESEDTAMYYCTRANYGNWFFEVWGAGTTVAVSS
VL: DIVLTQSPGFLVVSLGQRATISCRASESVAKYGLSLLNWFQQKPGQPPKLLIFAASNRGSGVPARFSGSGSGTDFSLNIHPMEEDDTAMYFCQQSKEVPFTFGSGTKLEIK
notes: Murine hybridoma clone from IL33 KO mouse

Cell assay (hu) IC90 [1]: 0.003 µg/mL and 0.02 nM
Cell assay (cy) IC90 [2]: 0.041 µg/mL and 0.27 nM
Kd [3]: 0.09 nM
Kd [4]: 0.06 nM
IC50 (HEK-BLUE SEAP reporter, IL-33 blocking) [5]: 0.0053 nM
IC90 (HEK-BLUE SEAP reporter, IL-33 blocking) [5]: 31 pM and 0.0047 µg/mL
IC50 (HEK-BLUE SEAP reporter, IL-33 blocking) [6]: 0.0174 nM
IC90 (HEK-BLUE SEAP reporter, IL-33 blocking) [6]: 271 pM and 0.0407 µg/mL
B2: 10H2 (antibody, V domains shown)
VH: EVKLEESGGGLVQPGGSMKLSCVASGFTFSNYWMNWVRQSPEKGLEWMAEITLKFNNYSTHYAESVKGRFSISRDDSKSTVYLQMNNLRAEDTGIYYCARRNYGDWYINVWGAGTTVTVSS
VL: DIVLTQSPTSLAVSLGQRATISCRASESVDKFGMSFLNWFQQKPGQPPKLLIFVASSQGSGVPARFSGSGSGTDFSLNIHPVEEDDTAMYFCQQSKDIPYTFGGGTKLEIK
notes: Murine hybridoma clone (Balb/C)

Cell assay (hu) IC90 [1]: 0.021 µg/mL and 0.14 nM
Cell assay (cy) IC90 [2]: > 1.5 µg/mL and > 9.9 nM
Kd [3]: 0.79 nM
Kd [4]: 0.06 nM
IC50 (HEK-BLUE SEAP reporter, IL-33 blocking) [5]: 0.0213 nM
IC90 (HEK-BLUE SEAP reporter, IL-33 blocking) [5]: 120 pM and 0.0181 µg/mL
IC50 (HEK-BLUE SEAP reporter, IL-33 blocking) [6]: > 10 nM
IC90 (HEK-BLUE SEAP reporter, IL-33 blocking) [6]: > 10000 pM and > 1.5 µg/mL
B3: 6C11 (antibody, V domains shown)
VH: EVKLEESGGGLVQPGGSMKLSCVASGFTFNKFWMNWVRQSPEKGLEWVAEIRLNSINYVKDYAESVKGRFTISRDDSKNSVYLQMNNLRAEDTGIYYCIRRNYGNWFFEIWGAGTTVTVSS
VL: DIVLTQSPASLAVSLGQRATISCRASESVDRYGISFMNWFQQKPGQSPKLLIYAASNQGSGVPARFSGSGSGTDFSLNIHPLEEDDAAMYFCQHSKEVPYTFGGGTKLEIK
notes: as for B2

Kd (cyno IL-33 N-His [7]): 8.33 nM
koff (cyno IL-33 N-His [7]): 0.00193 s⁻¹
kon (cyno IL-33 N-His [7]): 232000 M⁻¹ s⁻¹
t1/2 (cyno IL-33 N-His [7]): 6 min
Kd [8]: 2.37 nM
koff [8]: 0.000888 s⁻¹
kon [8]: 374000 M⁻¹ s⁻¹
t1/2 [8]: 13 min
Kd (cyno IL-33 N-His [9]): 3.76 nM
koff (cyno IL-33 N-His [9]): 0.000458 s⁻¹
kon (cyno IL-33 N-His [9]): 122000 M⁻¹ s⁻¹
t1/2 (cyno IL-33 N-His [9]): 25 min
Kd [10]: 0.811 nM
koff [10]: 0.000184 s⁻¹
kon [10]: 226000 M⁻¹ s⁻¹
t1/2 [10]: 63 min
Ph-p38 MFI at 0.4 nM Ab (500 pM human IL-33, primary basophils) [11]: 90 MFI
IC50; SEAP reporter (OD 620), HEK-BLUE IL-33/IL-1beta cells, 10 pM hIL-33 [12]: 9.5e-09 M
IC50 (biotinylated human IL-33): 4.1 nM
Maximum Blocking (biotinylated human IL-33): 75%
Ph-p38 MFI at 2 nM Ab (500 pM human IL-33, primary basophils) [13]: 100 MFI
B4: H1M9559N (antibody, IgG1, V domains shown)
VH: QVQLVESGGGVVQPGRSLRLSCAASGFTFSSYGMHWVRQAPGKGLEWVAVIWYDGRNKYYTDSVKGRFTISRDNSKNTLYLQMDSLRAEDTAVYYCARERYISSYYGGFDPWGQGALVTVSS
VL: DIQMTQSPSSVSASVGDRVTITCRASQGISSWLAWYQQKPGKAPKVLIYAASSLQSGVPSRFSGSGSGTDFTLTISSLQPEDFATYYCQQANSFPFTFGPGTKLDIK
notes: also called RG1

Kd (cyno IL-33 N-His [7]): 2.54 nM
koff (cyno IL-33 N-His [7]): 0.000469 s⁻¹
kon (cyno IL-33 N-His [7]): 185000 M⁻¹ s⁻¹
t1/2 (cyno IL-33 N-His [7]): 25 min
Kd [8]: 4.04 nM
koff [8]: 0.000522 s⁻¹
kon [8]: 129000 M⁻¹ s⁻¹
t1/2 [8]: 22 min
Kd (cyno IL-33 N-His [9]): 0.656 nM
koff (cyno IL-33 N-His [9]): 7.66e-05 s⁻¹
kon (cyno IL-33 N-His [9]): 117000 M⁻¹ s⁻¹
t1/2 (cyno IL-33 N-His [9]): 151 min
Kd [10]: 0.798 nM
koff [10]: 7.73e-05 s⁻¹
kon [10]: 96900 M⁻¹ s⁻¹
t1/2 [10]: 149 min
Ph-p38 MFI at 0.4 nM Ab (500 pM human IL-33, primary basophils) [11]: 119 MFI
IC50; SEAP reporter (OD 620), HEK-BLUE IL-33/IL-1beta cells, 10 pM hIL-33 [12]: 1.7e-08 M
IC50 (biotinylated human IL-33): 0.099 nM
Maximum Blocking (biotinylated human IL-33): 27%
Ph-p38 MFI at 2 nM Ab (500 pM human IL-33, primary basophils) [13]: 146 MFI
B5: H1M9566N (antibody, IgG1, V domains shown)
VH: EVQLLESGGDLVQPGGSLRLSCAASGFTFSSYAMSWVRQAPGKGLEWVSVISGSGSSTDYADSVKGRFTISRDNSRDTLHLQMNSLRAEDTAVYYCAKTFYYFYGLDVWGQGTTVTVSS
VL: DIQMTQSPSSLSASLRDRVTITCRASQGISNYLAWYQQKPGKVPKVLIYAASTLQSGVPSRFSGSGSGTVFTLTISSLQTEDVATYYCQKYSSAPFTFGPGTKVDIK
notes: also called RG2

Cell assay (hu) IC90 [1]: 0.004 µg/mL and 0.026 nM
Cell assay (cy) IC90 [2]: 0.185 µg/mL and 1.22 nM
Kd [3]: 0.037 nM
Kd [4]: 0.015 nM
IC50 (HEK-BLUE SEAP reporter, IL-33 blocking) [5]: 0.002 nM
IC90 (HEK-BLUE SEAP reporter, IL-33 blocking) [5]: 20.5 pM and 0.0031 µg/mL
IC50 (HEK-BLUE SEAP reporter, IL-33 blocking) [6]: 0.181 nM
IC90 (HEK-BLUE SEAP reporter, IL-33 blocking) [6]: 1220 pM and 0.183 µg/mL
B6: 10C12.38.H6.87Y.58I (antibody, V domains shown)
VH: EVQLVESGGGLVQPGGSLRLSCAASGFTFSSFSMSWVRQAPGKGLEWVATISGGKTFTDYVDSVKGRFTISRDDSKNTLYLQMNSLRAEDTAVYYCTRANYGNWFFEVWGQGTLVTVSS
VL: EIVLTQSPATLSLSPGERATLSCRASESVAKYGLSLLNWFQQKPGQPPRLLIFAASNRGSGIPARFSGSGSGTDFTLTISSLEPEDFAVYYCQQSKEVPFTFGQGTKVEIK
